# Source: patent US20230303649A1 (published 2023)
# Residue numbers refer to the chain shown, from its start.
# T1: IL-2R on human primary T cells (human, UniProt P01589 22-272; P14784 27-551; P31785 23-369)
# T1 sequence (looked up) 1: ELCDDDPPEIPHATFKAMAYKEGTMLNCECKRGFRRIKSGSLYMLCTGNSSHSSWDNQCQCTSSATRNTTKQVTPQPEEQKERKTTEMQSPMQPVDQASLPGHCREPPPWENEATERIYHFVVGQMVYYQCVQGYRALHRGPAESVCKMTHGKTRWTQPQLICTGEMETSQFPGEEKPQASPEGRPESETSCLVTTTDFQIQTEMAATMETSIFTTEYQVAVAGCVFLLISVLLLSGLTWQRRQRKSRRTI
# T1 sequence (looked up) 2: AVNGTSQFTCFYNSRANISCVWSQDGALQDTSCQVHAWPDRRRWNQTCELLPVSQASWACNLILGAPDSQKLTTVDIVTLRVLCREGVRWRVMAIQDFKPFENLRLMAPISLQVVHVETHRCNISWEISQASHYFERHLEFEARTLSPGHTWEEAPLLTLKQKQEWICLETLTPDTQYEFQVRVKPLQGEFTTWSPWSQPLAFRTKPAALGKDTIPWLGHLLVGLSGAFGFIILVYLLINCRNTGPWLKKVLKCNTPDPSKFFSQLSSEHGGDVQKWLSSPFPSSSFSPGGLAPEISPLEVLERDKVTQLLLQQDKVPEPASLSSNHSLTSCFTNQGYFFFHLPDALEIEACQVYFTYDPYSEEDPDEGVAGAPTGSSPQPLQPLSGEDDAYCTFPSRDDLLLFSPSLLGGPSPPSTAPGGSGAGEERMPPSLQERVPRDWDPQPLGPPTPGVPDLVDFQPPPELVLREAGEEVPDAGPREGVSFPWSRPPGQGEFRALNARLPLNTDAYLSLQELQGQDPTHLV
# T1 sequence (looked up) 3: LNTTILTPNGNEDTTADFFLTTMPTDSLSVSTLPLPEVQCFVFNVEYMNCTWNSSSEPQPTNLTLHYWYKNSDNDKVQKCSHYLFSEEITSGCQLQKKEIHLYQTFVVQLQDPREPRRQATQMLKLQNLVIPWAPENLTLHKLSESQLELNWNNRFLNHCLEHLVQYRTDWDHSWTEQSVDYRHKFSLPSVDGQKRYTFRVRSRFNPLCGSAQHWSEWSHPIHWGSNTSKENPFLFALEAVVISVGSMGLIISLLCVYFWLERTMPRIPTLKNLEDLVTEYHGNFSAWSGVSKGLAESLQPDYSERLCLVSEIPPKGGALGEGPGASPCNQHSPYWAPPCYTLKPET
# B1: SEQ ID NO 16 (ligand)
# chain: APTSSSTKKTQLQLEHLRLDLEMILNGINNYKNPKLTRMLTFKFYMPKKATELKHLQCLEEELKPLEEVLNLAQSKNFHFDPRDVVSNINVFVLELKGSETTFMCEYADETATIVEFLNRWITFSQSIISTLT
# B2: SEQ ID NO 18 (ligand)
# chain: B1 chain with R18L, E22Q
# B3: SEQ ID NO 14 (ligand)
# chain: B1 chain with R18L, E22Q, Y31H, K35R, Q74P, F80L, D81R, V85L, V86I, F92I
# B4: SEQ ID NO 32 (ligand)
# chain: B1 chain with R18L, E22Q, V69A, F80L, D81R, V85L, V86I, N88D, F92I
# B5: SEQ ID NO 21 (ligand)
# chain: B1 chain with R18L, E22Q, Y31H, V69A, Q74P, F80L, D81R, V85L, V86I, F92I
# B6: SEQ ID NO 31 (ligand)
# chain: B1 chain with R18L, E22Q, V69A, Q74P, F80L, D81R, V85L, V86I, N88D, F92I
# B7: SEQ ID NO 23 (ligand)
# chain: B1 chain with R18L, E22Q, Y31H, N71R, F80L, D81R, V85L, V86I, N88D, F92I
# B8: SEQ ID NO 17 (ligand)
# chain: B1 chain with E22Q, Q126T
# B9: SEQ ID NO 33 (ligand)
# chain: B1 chain with R18L, E22Q, Q74P, F80L, D81R, V85L, V86I, N88D, F92I
# B10: SEQ ID NO 13 (ligand)
# chain: APTSSSTKKTQLQLEHLLLDLQMILNGINNHKNPRLTRMLTFKFYMPKKATELKHLQCLEEELKPLEEALRLAPSKNFHLRPRDLISDINVIVLELKGSETTFMCEYADETATIVEFLNRWITFSQSIISTLT
# B11: SEQ ID NO 28 (ligand)
# chain: B10 chain with A69V, R71N
# B12: SEQ ID NO 10 (ligand)
# chain: B10 chain with N29S, T37A, K48E, I89V, Q126T
# B13: SEQ ID NO 24 (ligand)
# chain: B10 chain with R35K, A69V, P74Q, Q126T
# B14: SEQ ID NO 26 (ligand)
# chain: B10 chain with A69V
# B15: SEQ ID NO 15 (ligand)
# chain: B10 chain with A69V, D88N
# B16: SEQ ID NO 29 (ligand)
# chain: B10 chain with A69V, R71N, D88N, Q126T
# B17: SEQ ID NO 30 (ligand)
# chain: B10 chain with R35K, R71N
# B18: SEQ ID NO 20 (ligand)
# chain: B10 chain with R35K, D88N
# B19: SEQ ID NO 25 (ligand)
# chain: B10 chain with D88N, Q126T
# B20: SEQ ID NO 27 (ligand)
# chain: B10 chain with A69V, D88N, Q126T
# B21: SEQ ID NO 9 (ligand)
# chain: B10 chain with D88N
# Biological target: T1, IL-2R on human primary T cells
# Assay: cell-based or functional assay
Binder,"CD4 conv EC50 (nM), STAT5 phosphorylation [nM]","CD8 EC50 (nM), STAT5 phosphorylation [nM]","CD8 naïve EC50 (nM), STAT5 phosphorylation [nM]","Treg EC50 (nM), STAT5 phosphorylation [nM]"
B1,1.31,1.68,1.81,0.03
B2,15.9,23.5,21.1,0.08
B3,29.1,372,444,0.29
B4,7000,10000,10000,94.9
B5,4.81,151,204,0.07
B6,7000,10000,10000,17
B7,1000,1820,1880,0.49
B8,1000,10000,10000,1000
B9,4000,1000,1000,2.53
B10,4160,8650,8410,0.65
B11,1000,4000,4000,1.02
B12,,650,,2.55
B13,4000,10000,10000,18.3
B14,2640,4270,4270,0.67
B15,2.52,28.4,29.8,0.01
B16,2290,10000,10000,9.32
B17,7000,10000,10000,10.7
B18,1.2,227,312,0.03
B19,2290,10000,10000,0.43
B20,4000,10000,10000,5.94
B21,2.14,589,822,0.05
